Where a chain is given by its changes, count along the chain named.
B1: PRT-601 (protein)
chain: MANQEIRYSEETPSTVTSVWTKGVTPPTDFIQNEDVLHAPYIANQGWYDITKTFNGKDDLLCGAATAGNMLHWWFDQNKEQIKNYLKKHPEKQKINFNGEQMFDVKEAIDTKNHQLDSALFEYFKDKAFPYLSTKHLGVFPDHVIDMFINGYRLSLTNHGPTPVKRGTKDPRGGIFDAVFTRGDQSKLLTSRHDFKEKNLNEISDLIKKELTEGKALGLSHTYANVRINHVINLWGADFNANGNLEAIYVTDSDSNASIGMKKYFVGVNSAGKVAISAKEIKGDNIGAQVLGLFTLSTGQDSWNQTNLEHHHHHH
B2: PRT-579 (protein)
chain: MANQEIRYSKATPSHITSVWTKGVTPPENFIYNEDVLHAPYLPNQGWYDITKTFNGKDDLLCGAATAGNMLHWWFDQNKEQIERYLKEHPEKQKINFNGEQMFDVKEAIDTKDSQTNSKLFEYFKDKAFPYLSTKHLGVFPDHVIDMFINGYRLSLTNHGPTPVKEQNKDPRGGIFDAVFTRGDQSKLLTSRHDFKEKTLNEISQLIKQELTEGKALGLSHTYANVRINHVINLWGADFNAEGNLEAIYVTDSDSNASIGMKKYYVGVNSAGKVAISAKEIEGDNIGAQVLGLFTLSTGQDIWQQTNLEHHHHHH
B3: PRT-562 (protein)
chain: B2 chain with N29Q, Y32Q, L42I, P43A, R84N, E88K, K119A, E122S, N168T
B4: PRT-40 (protein)
chain: MANQEIRYSEVTPYHVTSVWTKGVTPPANFTQGEDVFHAPYVANQGWYDITKTFNGKDDLLCGAATAGNMLHWWFDQNKDQIKRYLEEHPEKQKINFNGEQMFDVKEAIDTKNHQLDSKLFEYFKEKAFPYLSTKHLGVFPDHVLDMFINGYRLSLTNHGPTPVKEGSKDPRGGIFDAVFTRGDQSKLLTSRHDFKEKNLKEISDLIKKELTEGKALGLSHTYANVRINHVINLWGADFDSNGNLKAIYVTDSDSNASIGMKKYFVGVNSAGKVAISAKEIKEDNIGAQVLGLFTLSTGQDSWNQTN
B5: PRT-2 (protein)
chain: MANQEIRYSEVTPYHVTSVWTKGVTPPAKFTQGEDVFHAPYVANQGWYDITKTFNGKDDLLCGAATAGNMLHWWFDQNKEKIEAYLKKHPDKQKIMFGDQELLDVRKVINTKGDQTNSELFNYFRDKAFPGLSARRIGVMPDLVLDMFINGYYLNVYKTQTTDVNRTYQEKDRRGGIFDAVFTRGDQSKLLTSRHDFKEKNLKEISDLIKKELTEGKALGLSHTYANVRINHVINLWGADFDSNGNLKAIYVTDSDSNASIGMKKYFVGVNSAGKVAISAKEIKEDNIGAQVLGLFTLSTGQDSWNQTN
B6: PRT-278 (protein)
chain: MVTSVWTKGVTPPTDFIYGEDVLHAPYKAGQGWYDITKLFNGKDNLLCGAATAGNMLHWWFDQNKEQIENYLKKHPEKQKIIFNNQELFDLKAAIDTKDSQLDSKLFDYFKEKAFPYLSTKHLGVFPDHVIDMFINGYRLSLTNHGPTPVKRGSKDKRGGIFDAVFTRGVQSKLLTNRHDLKNKTLKEISDLIKQELTEGKALGISHTYANVRINHVINLWGADFDAEGNLEAIYVTDSDTNPSIGMKKYFVGVNSSGKVAISAKEIEEDNIGAQVLGLFTLSTGQDIWNQTN
B7: PRT-552 (protein)
chain: MANQEIRYSEETPKTITSVWTKGVTPPTDFIQNEDVLHAPYIANQGWYDITKTFNGKDDLLCGAATAGNMLHWWFDQNKEEIENYLKKHPEKQKINFNGEQMFDVKEAIDTKDSQTDSALFEYFKDKAFPYLSTKHLGVFPDHVIDMFINGYRLSLTNHGPTPVKRGTKDPRGGIFDAVFTRGDQSKLLTARHDFKEKTLNEISDLIKQELTEGKALGLSHTYANVRINHVINLWGADFNSEGNLEAIYVTDSDSNASIGMKKYYVGVNAAGKVAISAKEIEGDNIGAQVLGLFTLSTGQDIWNQTNLEHHHHHH
B8: PRT-558 (protein)
chain: B7 chain with K14S, V19I, D29Q, E80T, K87T, E122S, S186T, N304Q
B9: PRT-592 (protein)
chain: B7 chain with K14S, E81Q, D113N, A191S, S241A, A270S
B10: PRT-546 (protein)
chain: B7 chain with Q32K, A191S, A270S, N304E
B11: PRT-551 (protein)
chain: B7 chain with K14S
B12: PRT-597 (protein)
chain: B7 chain with K14S, E81Q, A191S, S241A, E242N, A270S
B13: PRT-530 (protein)
chain: B7 chain with F140M, H143L, I145L, R153Y, L156V, T157G, N158K, G218A, N304E
B14: PRT-536 (protein)
chain: MANQEIRYSGDSEWANKKVWVYGITPAEEGAWLYSTYYLPWKKEYGWYDCNKRNPTADGMMCWAASASNLMHWWIAQNKRYIDLYGDRYKGPDKINFNGEQMFDVKEYIDPLDKPQESDIFQCFIDKSFADLSTKHEAGKGDEGINWFIHGIIPSYPAHGPTPVKLRYPYNPAGYFKDVFPRGDGVVLGGNNGDFKELGKERFNETIKDALANKKGIGLSIGPVNVRKSHVETMWGAEFDENGDVSYIYMADNNDRWGVGCIRLQIVYVEGATYTCYKTEIIPSDRPIPINRLVTVELGEEYWKQTNLEHHHHHH
B15: PRT-539 (protein)
chain: MANQEIRYSKNENPNVTIKWVHGIGEPTQAEKEKIEFYWYETNTTKFFNNRKVTHLGDSNQCWAKTASNMLHWWFEQNKENINKYIEKKNITGKINFNGEQMFDVKEGIDDNQEKEKSYIANTFRTKKAHNLSTKHKGDYIISGLAWYLYGLNNFKNAHGPTPVKKKPKFYGPALFKDVFNRGDGNTPIKEETDFKEYTKKEFEDILKEALDSKKAIGINIYGSNVGYGHAITLWGAAFDEDNNIIAIYVVDNNFKFENRIFPYGIWYEKEGRPYLFNYEINSFVKNRYVGEITTLDKGEAQWQETNLEHHHHHH
B16: PRT-540 (protein)
chain: B15 chain with E76V, S143N, K190I, I206T, K208S, G227D, N243E
B17: PRT-286 (protein)
chain: MVTSVWTKGVTPPAKFTQGEDVFHAPYDANQGWYDITKTFNGKDDLLCGAATAGNMLHWWFDQNKEKIEAYLKKHPDKQKIMFGDQELLDVRKVINTKGDQTNSELFNYFRDKAFPNLSARRIGVMPDLVLDMFINGYYLNVYKTQTTDVNRTYQEKDRRGGIFDAVFTRGDQSKLLTSRHDFKEKNLKEISDLIKKELTEGKALGLSHTYANVRISHVINLWGADFDSNGNLKAIYVTDSDSNASIGMKKYFVGVNSSGKVAISAKEIKEDNIGAQVLGLFTLSTGQDSWNQTN

Target: pooled human IgG

| Protein | Enzyme Activity Endpoint Assay: Fab′2 [ng/µL] | Enzyme Activity Endpoint Assay: Fc [ng/µL] | Enzyme Activity Endpoint Assay: IgG [ng/µL] | Enzyme Activity Endpoint Assay: scIgG [ng/µL] |
| --- | --- | --- | --- | --- |
| B1 | 720 | 529 | 0 | 0 |
| B2 | 816 | 450 | 0 | 0 |
| B3 | 705 | 380 | 0 | 238 |
| B4 | 42 | 108 | 14 | 13 |
| B5 | 47 | 94 | 21 | 0 |
| B6 | 547 | 315 | 0 | 0 |
| B7 | 439 | 294 | 45 | 264 |
| B8 | 700 | 281 | 0 | 0 |
| B9 | 664 | 359 | 0 | 0 |
| B10 | 722 | 390 | 0 | 236 |
| B11 | 444 | 217 | 0 | 0 |
| B12 | 603 | 315 | 0 | 0 |
| B13 | 87 | 225 | 74 | 687 |
| B14 | 0 | 0 | 1530 | 0 |
| B15 | 0 | 0 | 1400 | 0 |
| B16 | 0 | 0 | 1490 | 0 |
| B17 | 650 | 352 | 0 | 0 |

Source: patent US20250027068
